Drawing on patent publication US20170355775A1 (ELANCO TIERGESUNDHEIT, published 2017), this text covers binding result and Kd for one molecule.

Experiment [1] concerns the target T1, canine CD20 ECD2-mFc fusion protein (canine).
T1 construct: also called cCD20 ECD2-mFc
T1 chain: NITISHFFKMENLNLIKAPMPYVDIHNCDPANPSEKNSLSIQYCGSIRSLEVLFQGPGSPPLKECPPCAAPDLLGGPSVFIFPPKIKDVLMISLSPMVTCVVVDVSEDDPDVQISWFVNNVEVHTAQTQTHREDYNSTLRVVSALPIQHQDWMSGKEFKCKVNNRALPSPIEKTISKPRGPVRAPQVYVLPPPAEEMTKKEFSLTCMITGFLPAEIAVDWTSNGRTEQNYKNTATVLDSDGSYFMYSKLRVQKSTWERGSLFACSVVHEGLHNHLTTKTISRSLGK
Briefly: ELISA, antigen coated at 200 ng/well, antibody 5 ug/ml. The protocol:
(§1) This strategy- enabled identification of the specific sequences in canine CD20 that each mAb binds. Binding was tested using a standard ELISA protocol. Briefly, recombinant canine CD20 ECD2-mFc fusion protein and human/canine hybrid variants thereof were diluted in PBS and bound to a 96-well microtiter plate at 200 ng/well by overnight incubation at 4° C. The plate was rinsed three times with PBST buffer, blocked with a solution of 3% BSA in PBS for one hour at 37° C., then rinsed once with PBST. Mouse monoclonal antibodies 1E4, 1G1, and 1G10 were diluted to a concentration of 5 μg/ml in PBS and 50 μl of this dilution was applied to the plate for 1 hour at room temperature. The plate was then rinsed three times with PBST, and Jackson Immunoresearch goat anti-mouse-IgG light chain-specific HRP conjugate (#115-035-174) diluted to 1:5000 in PBS (50 μL) was added to each well, and the plate was incubated for 45 min at room temperature. The plate was washed three times with PBST, then 100 μl of SureBlueTMB substrate (KPL #52-00-03) was added to each well and the plate was incubated for about 10 min at room temperature. The plate was read at 650 nm in a spectrophotometer.
(In general: ELISA stands for enzyme-linked immunosorbent assay.)

Experiment [2] concerns the target T2, Hum-Can CD20 ECD2 V2 (mFc fusion) (human/canine hybrid).
T2 construct: Described as a hybrid version of the original immunogen CD20 ECD2-mFc
T2 chain: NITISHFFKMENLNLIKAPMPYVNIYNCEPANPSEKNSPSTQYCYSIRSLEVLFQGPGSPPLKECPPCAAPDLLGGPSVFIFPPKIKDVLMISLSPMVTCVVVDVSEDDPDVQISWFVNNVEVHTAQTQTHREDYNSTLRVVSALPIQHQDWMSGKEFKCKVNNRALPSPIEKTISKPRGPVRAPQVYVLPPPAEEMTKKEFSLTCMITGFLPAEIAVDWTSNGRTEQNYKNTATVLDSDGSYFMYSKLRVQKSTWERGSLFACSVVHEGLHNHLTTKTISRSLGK
Described as above. How it is done:
as §1

Experiment [3] concerns the target T3, Hum-Can CD20 ECD2 V3 (mFc fusion) (human/canine hybrid).
T3 construct: Described as a hybrid version of the original immunogen CD20 ECD2-mFc
T3 chain: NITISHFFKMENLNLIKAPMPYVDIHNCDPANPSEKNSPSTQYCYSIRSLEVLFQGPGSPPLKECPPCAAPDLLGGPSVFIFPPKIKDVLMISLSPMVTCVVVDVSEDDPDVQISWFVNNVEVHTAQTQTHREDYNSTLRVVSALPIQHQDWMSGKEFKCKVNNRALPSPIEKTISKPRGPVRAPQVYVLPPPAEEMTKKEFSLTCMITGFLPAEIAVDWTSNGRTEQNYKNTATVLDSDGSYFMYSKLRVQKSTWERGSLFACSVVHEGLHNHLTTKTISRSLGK
The description is as above. The protocol: as §1

The target in experiment [4] is T4, Hum-Can CD20 ECD2 V4 (mFc fusion) (human/canine hybrid).
T4 construct: Described as a hybrid version of the original immunogen CD20 ECD2-mFc
T4 chain: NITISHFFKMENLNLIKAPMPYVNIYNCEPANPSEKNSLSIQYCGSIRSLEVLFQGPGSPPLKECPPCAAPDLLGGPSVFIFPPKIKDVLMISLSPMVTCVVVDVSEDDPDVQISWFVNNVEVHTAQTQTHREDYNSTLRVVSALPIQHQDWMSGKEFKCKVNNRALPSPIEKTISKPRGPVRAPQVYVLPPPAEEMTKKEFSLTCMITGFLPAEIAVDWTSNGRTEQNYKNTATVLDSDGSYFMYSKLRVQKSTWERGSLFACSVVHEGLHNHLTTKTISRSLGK
The experiment is described as above. How it is done: as §1

The target of experiment [5] is T5, canine CD20 on canine B cells / B cell lymphoma cells (canine, UniProt Q3C2E2 1-297).
T5 construct: whole, on cells; Endogenous CD20 on canine cells
T5 sequence (looked up): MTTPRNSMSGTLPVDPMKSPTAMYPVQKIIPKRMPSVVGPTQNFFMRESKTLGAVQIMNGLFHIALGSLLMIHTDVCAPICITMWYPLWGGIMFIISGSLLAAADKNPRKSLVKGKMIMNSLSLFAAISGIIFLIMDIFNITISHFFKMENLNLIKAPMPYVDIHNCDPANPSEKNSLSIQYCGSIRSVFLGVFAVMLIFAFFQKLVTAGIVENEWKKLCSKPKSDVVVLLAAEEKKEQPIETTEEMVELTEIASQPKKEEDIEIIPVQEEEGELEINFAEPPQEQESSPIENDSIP
Nature of the experiment: FACS on canine B cell lymphoma cells expressing canine CD20. How it is done:
The relative affinities of the mouse monoclonal antibodies 1E4, 1G1, and 1G10 for binding to canine CD20 was determined by fluorescent activated cell sorting (FACS) using canine B cell lymphoma cells, which express canine CD20.

B1: mouse monoclonal antibody 1G1 (antibody, V domains shown)
VH: EVQLQQSGAELVRPGASVKLSCTASGFNIKDDYMHWVKQRPEQGLEWIGWIDPENGHTKYASKFQGKATITADTSSNTAYLQLSSLTSEDTAVYYCTSLRHYYGSSYVSPHYYWGQGTTLTVSS
VL: DIVMTQSQKFMSRSVGDRVSVTCKASQNVGPNVAWYQQRPGQSPKPLIYSASYRYSGVPDRFTGSGSGTDFTLTISNVQSEDLAEYFCQQYNNYPYTFGGGTKLEIK
notes: Mouse monoclonal antibody from a hybridoma; also called hybridoma antibody 1G1
Take B1: the binding result in experiment [1], in experiment [2], in experiment [3] and in experiment [4] was “binds” in each case. In experiment [5], this molecule showed a Kd of 19.8 nM.

One may read the Kd as the concentration at which binding is half-saturated. Higher therefore signals weaker binding.
